We go through 5 molecules from patent US20130005646A1 (Novo Nordisk, published 2013).

The labels stand for the following.
T1: human amylin 3(a) receptor (human calcitonin receptor + RAMP-3) (human, UniProt P30988 25-474; O60896 24-148)
T1 sequence (looked up) 1: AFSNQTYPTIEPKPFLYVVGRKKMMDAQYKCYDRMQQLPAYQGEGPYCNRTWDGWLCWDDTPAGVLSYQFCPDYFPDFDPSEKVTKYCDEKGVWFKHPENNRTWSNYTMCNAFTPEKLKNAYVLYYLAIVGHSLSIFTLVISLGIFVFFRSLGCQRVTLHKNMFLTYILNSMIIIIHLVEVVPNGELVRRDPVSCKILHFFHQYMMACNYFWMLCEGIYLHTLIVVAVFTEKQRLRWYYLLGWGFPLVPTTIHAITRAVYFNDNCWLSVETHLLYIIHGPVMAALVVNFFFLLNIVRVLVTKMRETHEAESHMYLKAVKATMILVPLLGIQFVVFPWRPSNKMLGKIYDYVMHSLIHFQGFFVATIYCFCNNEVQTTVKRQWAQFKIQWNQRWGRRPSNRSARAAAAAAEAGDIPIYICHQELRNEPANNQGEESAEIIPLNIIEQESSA
T1 sequence (looked up) 2: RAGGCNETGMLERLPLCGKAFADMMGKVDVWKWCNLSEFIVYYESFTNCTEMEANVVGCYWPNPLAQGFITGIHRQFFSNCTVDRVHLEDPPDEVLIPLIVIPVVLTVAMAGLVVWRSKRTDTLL

T2: human calcitonin (a) receptor (human, UniProt P30988 25-474)
T2 sequence (looked up): T1 sequence (looked up) 1

B1: N-epsilon1-[(S)-4-Carboxy-4-(19-carboxynonadecanoylamino)butyryl]-[Glu14,His17,Gln21,Ala25,Pro26,Ser28,Ser29,Pro37]-pramlintide (peptide)
peptide: K([γGlu-C20 diacid])CNTATCATQRLAEFLHHSSQNFGAPLSSTNVGSNTP-NH2
modifications: disulfide 2-7; N-terminus assumed
SMILES: CC(C)C[C@H](NC(=O)[C@H](CCCNC(=N)N)NC(=O)[C@H](CCC(N)=O)NC(=O)[C@@H](NC(=O)[C@H](C)NC(=O)[C@@H]1CSSC[C@H](NC(=O)[C@@H](N)CCCCNC(=O)CC[C@H](NC(=O)CCCCCCCCCCCCCCCCCCC(=O)O)C(=O)O)C(=O)N[C@@H](CC(N)=O)C(=O)N[C@@H]([C@@H](C)O)C(=O)N[C@@H](C)C(=O)N[C@@H]([C@@H](C)O)C(=O)N1)[C@@H](C)O)C(=O)N[C@@H](C)C(=O)N[C@@H](CCC(=O)O)C(=O)N[C@@H](Cc1ccccc1)C(=O)N[C@@H](CC(C)C)C(=O)N[C@@H](Cc1c[nH]cn1)C(=O)N[C@@H](Cc1c[nH]cn1)C(=O)N[C@@H](CO)C(=O)N[C@@H](CO)C(=O)N[C@@H](CCC(N)=O)C(=O)N[C@@H](CC(N)=O)C(=O)N[C@@H](Cc1ccccc1)C(=O)NCC(=O)N[C@@H](C)C(=O)N1CCC[C@H]1C(=O)N[C@@H](CC(C)C)C(=O)N[C@@H](CO)C(=O)N[C@@H](CO)C(=O)N[C@H](C(=O)N[C@@H](CC(N)=O)C(=O)N[C@H](C(=O)NCC(=O)N[C@@H](CO)C(=O)N[C@@H](CC(N)=O)C(=O)N[C@H](C(=O)N1CCC[C@H]1C(N)=O)[C@@H](C)O)C(C)C)[C@@H](C)O
B2: N-alpha-[(S)-4-Carboxy-4-(19-carboxynonadecanoylamino)butyryl]-[Arg17,Pro37]-pramlintide (peptide)
peptide: {C20 diacid-γGlu}-KCNTATCATQRLANFLRHSSNNFGPILPPTNVGSNTP-NH2
modifications: disulfide 2-7
SMILES: CC[C@H](C)[C@H](NC(=O)[C@@H]1CCCN1C(=O)CNC(=O)[C@H](Cc1ccccc1)NC(=O)[C@H](CC(N)=O)NC(=O)[C@H](CC(N)=O)NC(=O)[C@H](CO)NC(=O)[C@H](CO)NC(=O)[C@H](Cc1c[nH]cn1)NC(=O)[C@H](CCCNC(=N)N)NC(=O)[C@H](CC(C)C)NC(=O)[C@H](Cc1ccccc1)NC(=O)[C@H](CC(N)=O)NC(=O)[C@H](C)NC(=O)[C@H](CC(C)C)NC(=O)[C@H](CCCNC(=N)N)NC(=O)[C@H](CCC(N)=O)NC(=O)[C@@H](NC(=O)[C@H](C)NC(=O)[C@@H]1CSSC[C@H](NC(=O)[C@H](CCCCN)NC(=O)CC[C@H](NC(=O)CCCCCCCCCCCCCCCCCCC(=O)O)C(=O)O)C(=O)N[C@@H](CC(N)=O)C(=O)N[C@@H]([C@@H](C)O)C(=O)N[C@@H](C)C(=O)N[C@@H]([C@@H](C)O)C(=O)N1)[C@@H](C)O)C(=O)N[C@@H](CC(C)C)C(=O)N1CCC[C@H]1C(=O)N1CCC[C@H]1C(=O)N[C@H](C(=O)N[C@@H](CC(N)=O)C(=O)N[C@H](C(=O)NCC(=O)N[C@@H](CO)C(=O)N[C@@H](CC(N)=O)C(=O)N[C@H](C(=O)N1CCC[C@H]1C(N)=O)[C@@H](C)O)C(C)C)[C@@H](C)O
B3: N-alpha-[(S)-4-Carboxy-4-(19-carboxynonadecanoylamino)butyryl]-[Arg14,Arg17,Pro37]-pramlintide (peptide)
peptide: {C20 diacid-γGlu}-KCNTATCATQRLARFLRHSSNNFGPILPPTNVGSNTP-NH2
modifications: disulfide 2-7
SMILES: CC[C@H](C)[C@H](NC(=O)[C@@H]1CCCN1C(=O)CNC(=O)[C@H](Cc1ccccc1)NC(=O)[C@H](CC(N)=O)NC(=O)[C@H](CC(N)=O)NC(=O)[C@H](CO)NC(=O)[C@H](CO)NC(=O)[C@H](Cc1c[nH]cn1)NC(=O)[C@H](CCCNC(=N)N)NC(=O)[C@H](CC(C)C)NC(=O)[C@H](Cc1ccccc1)NC(=O)[C@H](CCCNC(=N)N)NC(=O)[C@H](C)NC(=O)[C@H](CC(C)C)NC(=O)[C@H](CCCNC(=N)N)NC(=O)[C@H](CCC(N)=O)NC(=O)[C@@H](NC(=O)[C@H](C)NC(=O)[C@@H]1CSSC[C@H](NC(=O)[C@H](CCCCN)NC(=O)CC[C@H](NC(=O)CCCCCCCCCCCCCCCCCCC(=O)O)C(=O)O)C(=O)N[C@@H](CC(N)=O)C(=O)N[C@@H]([C@@H](C)O)C(=O)N[C@@H](C)C(=O)N[C@@H]([C@@H](C)O)C(=O)N1)[C@@H](C)O)C(=O)N[C@@H](CC(C)C)C(=O)N1CCC[C@H]1C(=O)N1CCC[C@H]1C(=O)N[C@H](C(=O)N[C@@H](CC(N)=O)C(=O)N[C@H](C(=O)NCC(=O)N[C@@H](CO)C(=O)N[C@@H](CC(N)=O)C(=O)N[C@H](C(=O)N1CCC[C@H]1C(N)=O)[C@@H](C)O)C(C)C)[C@@H](C)O
B4: N-alpha-[(S)-4-Carboxy-4-(19-carboxynonadecanoylamino)butyryl]-Gly-[Arg1,Glu14,Arg17,Pro37]-pramlintide (peptide)
peptide: {C20 diacid-γGlu}-GRCNTATCATQRLAEFLRHSSNNFGPILPPTNVGSNTP-NH2
modifications: disulfide 3-8
SMILES: CC[C@H](C)[C@H](NC(=O)[C@@H]1CCCN1C(=O)CNC(=O)[C@H](Cc1ccccc1)NC(=O)[C@H](CC(N)=O)NC(=O)[C@H](CC(N)=O)NC(=O)[C@H](CO)NC(=O)[C@H](CO)NC(=O)[C@H](Cc1c[nH]cn1)NC(=O)[C@H](CCCNC(=N)N)NC(=O)[C@H](CC(C)C)NC(=O)[C@H](Cc1ccccc1)NC(=O)[C@H](CCC(=O)O)NC(=O)[C@H](C)NC(=O)[C@H](CC(C)C)NC(=O)[C@H](CCCNC(=N)N)NC(=O)[C@H](CCC(N)=O)NC(=O)[C@@H](NC(=O)[C@H](C)NC(=O)[C@@H]1CSSC[C@H](NC(=O)[C@H](CCCNC(=N)N)NC(=O)CNC(=O)CC[C@H](NC(=O)CCCCCCCCCCCCCCCCCCC(=O)O)C(=O)O)C(=O)N[C@@H](CC(N)=O)C(=O)N[C@@H]([C@@H](C)O)C(=O)N[C@@H](C)C(=O)N[C@@H]([C@@H](C)O)C(=O)N1)[C@@H](C)O)C(=O)N[C@@H](CC(C)C)C(=O)N1CCC[C@H]1C(=O)N1CCC[C@H]1C(=O)N[C@H](C(=O)N[C@@H](CC(N)=O)C(=O)N[C@H](C(=O)NCC(=O)N[C@@H](CO)C(=O)N[C@@H](CC(N)=O)C(=O)N[C@H](C(=O)N1CCC[C@H]1C(N)=O)[C@@H](C)O)C(C)C)[C@@H](C)O

Starred links: 1 amine or outer side, 2 acyl side, 3 side chain; linkers in the order of their positions; H or OH if unused. Positions of bridges follow the written chain, without caps; N, C: chain ends. Groups on a side chain read outwards from the residue. No end group written: not given here. *: point of attachment. C20 diacid = O=C(O)CCCCCCCCCCCCCCCCCCC(=O)*; γGlu = O=C(O)[C@H](CCC(=O)[*:2])N[*:1]; AEEA = NCCOCCOCC(=O)O

For the first test, the target named is T1, human amylin 3(a) receptor (human …). Kind of test: cell-based or functional assay.
B1: the “Amylin receptor human EC50” value is 0.209 nM.

As for B2, the “Amylin receptor human EC50” value was determined as 0.053 nM.

In the case of B3, the “Amylin receptor human EC50” value worked out at 0.129 nM.

With KCNTATCATQRLAEFLVRSSK([AEEA-AEEA-γGlu-19‑carboxyheptadecanoyl])NFGPILSRTNVGSRTY-NH2 (disulfide 2-7), the “Amylin receptor human EC50” value came to 0.344 nM.

B4: the “Amylin receptor human EC50” value stood at 0.043 nM.

In the next test the target is T2, human calcitonin (a) receptor. As to the kind of experiment: cell-based or functional assay.
In the case of B1, the “CTa receptor human EC50” value came out at 0.0675 nM.

B2: the “CTa receptor human EC50” value came out at 0.057 nM.

For the molecule B3, the “CTa receptor human EC50” value came to 0.453 nM.

Consider KCNTATCATQRLAEFLVRSSK([AEEA-AEEA-γGlu-19‑carboxyheptadecanoyl])NFGPILSRTNVGSRTY-NH2 (disulfide 2-7), for which the “CTa receptor human EC50” value worked out at 0.732 nM.

On to B4, for which the “CTa receptor human EC50” value turned out to be 0.041 nM.
